Laboratory results published in patent US20100041597A1, “PEPTIDES TARGETED TO PROTEIN KINASE C ISOFORMS AND USES THEREOF” (priority 2005, published 2010).

What was measured:
PKC-α = PKC-α (Homo sapiens, UniProt P17252); assay: ELISA-based competitive binding assay with purified PKC isoform; parameters: key to Affinity for PKC isoform α: —: no detectable affinity; Low to very low affinity at 10X or 20X or both PRE concentrations in at least one cell line in the cell extract assay; Low affinity in purified isoform assay.; Moderate affinity at 10X or 20X or both PRE concentrations in at least one cell line in the cell extract assay.; High affinity at 10X or 20X or both PRE concentrations in at least one cell line in the cell extract assay; High affinity in purified isoform assay; conditions: for inhibition at 50 µM / inhibition at 100 µM / inhibition at 200 µM / calculated binding capacity (100-% n) after subtraction of the DMSO apparent binding capacity: purified PKC-α; for inhibition at 50 µM / inhibition at 100 µM / inhibition at 200 µM: read-out: calculated binding capacity (100-% n) after subtraction of the DMSO apparent binding capacity; for Affinity for PKC isoform α: Purified isoform, Table 20; for targeting of PKC-α: purified isoform, Tables 14-19; for isoform specificity: purified isoforms α, βI, βII, δ, ε, ζ compared
Procedure: Peptides PRE 1, 2, 3, 4, 5, 6, 7, 8, 9, 10, 11, 12 and 13 (see Table 3) were tested for their ability to interfere with binding of PKC isoform-specific antibodies to their target PKC isoforms using a competitive binding assay and purified PKC isoforms.
Procedure: Competitive binding was assessed using a 96 well plate ELISA-based assay as described below.
Greiner 96 well ELISA plates were coated with the appropriate PKC isoform diluted in PBSN (PBS with Calcium/Magnesium+0.05% Sodium azide w/w). 50 μL/well at 250 ng/mL was used. Control wells contained PBSN only. Plates were incubated overnight at 4° C.
The plates were washed 3 times with 200 μL of dH2O per well, then 100 μL of blocking solution was added per well and the plate incubated for 1 h at 37° C. The washing steps with dH2O were repeated and 50 μL of the appropriate PRE solution (PRE stock solution [20 mM in DMSO] diluted in PBSN) was added and the plate incubated for 1 h at room temperature.
After incubation, 5 μL of 1.1:400 anti-PKC (isoform specific antibody) was added per well (to provide a final concentration of 1:4000). For PKC-epsilon, 1.1:800 dilution was used and for PKC-zeta a 1.1:100 dilution was used due to high and low binding affinity, respectively. The plates were then incubated 1 h at room temperature, followed by washing with dH2O as described above.
50 μL of 1:1000 dilution of Alkaline Phosphatase (AP) conjugated antibody (anti-rabbit for all except zeta, which was anti-goat) was then added and the plate incubated for 1 h at room temperature. Washing with dH2O was then repeated. Finally, 100 μL of pNPP solution in pNPP buffer (2 mM MgCl2, 100 mM Sodium bicarbonate in water, pH 9.8) was added to all wells and incubated for 8 minutes for α, βI, βII ε, and ζ, or for 15-20 mins for […] (until sufficient coloration is observed). The reaction was stopped by addition of Stop solution (2N NaOH) and the absorbance at 405 nm was read on a Galaxy Plate reader.
Controls were PKC without PRE; blank controls, and controls containing the final concentrations of DMSO used for solubilizing the PREs. The non-specific binding capacity related to DMSO was also measured.
The antibodies used were as follows: anti-PKC α (Cat. No. SC-208); anti-PKC βI (Cat. No. SC-209); anti-PKC βII (Cat. No. SC-210); anti-PKC δ (Cat. No. SC-213); anti-PKC ε (Cat. No. SC-214); anti-PKC ζ (Cat. No. SC-216-G) (all from Santa Cruz Biotechnology, Inc.). The AP-conjugated antibodies were obtained from Jackson Immuno Research Laboratories (West Grove, Pa.).
Calculations: The OD values measured at 405 nm represent the free PKC coated per well.
OD405 PKC alone−Blank OD405 of each sample=OD405 coated isoform
(OD405 of sample X/OD405 coated isoform)×100=% n that represents the percentage of X binding compared to control.
100-% n measures the relative binding capacity of X towards the tested isoform.
The apparent binding capacity of the DMSO samples was then subtracted from X binding capacity.
All measurements were made in triplicate and the values in the table represent the averaged calculated binding capacity values after subtraction of the DMSO apparent binding capacity (averaged from 12 values, respectively 10.80, 11.20 and 16.40 corresponding to the concentrations of DMSO used to dilute the […] at 200, 100 and 50 μM respectively). The results allow for quantitative comparison of the binding capacity of each PRE towards an individual isoform within each table, but not among isoforms due to differences in sensitivity of the specific antibodies toward the secondary antibody. This applies particularly to PKC-delta. As noted above, the colour development duration was increased 2-3 times and, as a result, the OD405 measurements may be overestimated for this isoform.

PKC-δ = PKC-δ (Homo sapiens, UniProt Q05655); assay: Competitive binding assay using cell extracts (Western blot); parameters: cytoplasmic extracts from different cell lines expressing appropriate PKC isoforms; endogenous in cells; host or cells: H661, MDAMB231, LS180, T24 (human, from ATCC); key to Affinity for PKC isoform δ: —: no detectable affinity; Low to very low affinity at 10X or 20X or both PRE concentrations in at least one cell line in the cell extract assay; Low affinity in purified isoform assay.; Moderate affinity at 10X or 20X or both PRE concentrations in at least one cell line in the cell extract assay.; High affinity at 10X or 20X or both PRE concentrations in at least one cell line in the cell extract assay; High affinity in purified isoform assay; conditions: for Affinity for PKC isoform δ: Cell extract, PRE at 10X, 20X antibody concentration, Table 20
Procedure: Binding efficiency and specificity of the peptides PRE 2, 3, 4, 5, 6, 7, 8, 9, 10, 11, 12 and 13 (see Table 3) was also tested using cytoplasmic extracts from different cell lines expressing appropriate PKC isoforms as described for Example 1. Briefly, the protein cytoplasmic extracts were separated by electrophoresis and transferred onto nitrocellulose membranes by standard Western blotting procedures. The bands on the Western blots were detected with matching primary antibodies and alkaline phosphatase conjugated secondary antibody. The bands were then scanned and the relative density measurements obtained.
This procedure to assess the binding characteristics of the PREs is based on competition binding of the PRE with the primary anti-isoform PKC specific antibodies. The lower the measured band density, the greater the binding of the PRE to the PKC isoform. The PREs were added at 10 and 20 times (10×, 20×) the primary antibody concentration, according to classical competition between antigenic peptide and primary antibody. The following cell lines (obtained from the ATCC) were used: H661—NCI human lung carcinoma NSCLC; MDAMB231—human highly invasive breast cancer cell line from pleural effusion; LS180—human colon adenocarcinoma; LnCAP—human prostate adenocarcinoma; CCD16Lu—human lung fibroblasts; Du145—human prostate carcinoma brain metastasis, and T24—human bladder carcinoma.
In these cases, the 20× band density figures relative to control and 10× values were reliable.

PKC-δ, sequence (Q05655 whole entry, canonical isoform): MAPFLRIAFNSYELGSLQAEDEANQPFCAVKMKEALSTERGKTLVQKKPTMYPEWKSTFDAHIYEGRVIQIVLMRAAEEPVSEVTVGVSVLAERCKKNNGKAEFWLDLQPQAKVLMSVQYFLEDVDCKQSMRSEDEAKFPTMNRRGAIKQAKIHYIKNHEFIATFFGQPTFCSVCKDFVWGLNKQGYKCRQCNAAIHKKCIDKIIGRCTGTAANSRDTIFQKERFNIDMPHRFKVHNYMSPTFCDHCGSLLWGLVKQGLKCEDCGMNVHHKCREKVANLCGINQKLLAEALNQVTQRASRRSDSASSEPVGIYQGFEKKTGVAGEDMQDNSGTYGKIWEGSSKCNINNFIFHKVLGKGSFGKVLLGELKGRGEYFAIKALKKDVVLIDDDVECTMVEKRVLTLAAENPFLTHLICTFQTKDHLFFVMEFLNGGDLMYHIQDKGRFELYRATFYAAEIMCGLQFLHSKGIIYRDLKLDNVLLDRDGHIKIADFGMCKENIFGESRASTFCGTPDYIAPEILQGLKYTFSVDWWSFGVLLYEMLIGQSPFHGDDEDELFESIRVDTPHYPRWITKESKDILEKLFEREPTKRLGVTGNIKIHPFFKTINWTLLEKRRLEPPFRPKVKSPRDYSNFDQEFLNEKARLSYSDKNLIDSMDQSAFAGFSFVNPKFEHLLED

Affinity for PKC isoform α (PKC-α)	Affinity for PKC isoform δ (PKC-δ)	Substance	other results
H	H	Ac-AKGIQEVKGGDAQNLIGISI-NH2 [PRE 3]	inhibition at 50 µM (PKC-α; PRE 50 μM): 17.5%; inhibition at 100 µM (PKC-α; PRE 100 μM): 26.5%; inhibition at 200 µM (PKC-α; PRE 200 μM): 22.6%; targeting of PKC-α (PKC-α): targeted most strongly; isoform specificity (PKC-α): “universal” PKC targeting peptide, with the exception of the PKC-βII isoform
—	—	Ac-AKGIQEVKGGKDAQNLIGISI-NH2 [PRE 5]	inhibition at 50 µM (PKC-α; PRE 50 μM): 0%; inhibition at 100 µM (PKC-α; PRE 100 μM): 0%; inhibition at 200 µM (PKC-α; PRE 200 μM): 0%
—	H	Ac-ISIGILNQADK-NH2 [PRE 10]	
L	L	Ac-ISIGILQNADK-NH2 [PRE 7]	
—	M/H	Ac-KDANQLIGISI-NH2 [PRE 6]	
—	—	Ac-KDAQNLI-NH2 [PRE 12]	
H	—	Ac-KDAQNLIGISI-NH2 [PRE 4, Ac-KDAQNLIGISI-NH2]	inhibition at 50 µM (PKC-α; PRE 50 μM): 6.46%; inhibition at 100 µM (PKC-α; PRE 100 μM): 21.9%; inhibition at 200 µM (PKC-α; PRE 200 μM): 22.8%; targeting of PKC-α (PKC-α): targeted most strongly; isoform specificity (PKC-α): specificity for PKC-A; affinity for PKC-δ (PKC-δ; cell extracts): none for PKC-6
—	—	Ac-RDAQNLI-NH2 [PRE 13]	
L	—	Ac-RDAQNLIGISI-NH2 [PRE 11]	
—	H	Ac-isigilgnadk-NH2 [PRE 9]	calculated binding capacity (100-% n) after subtraction of the DMSO apparent binding capacity (PKC-α; PRE 100 μM): 5.35
—	L	ILEDKGGDAQNLIGISI [PRE 8]	
—	—	RRKKGGKDFVVKR [PRE 1]	calculated binding capacity (100-% n) after subtraction of the DMSO apparent binding capacity (PKC-α; PRE 50 μM): 0.69; calculated binding capacity (100-% n) after subtraction of the DMSO apparent binding capacity (PKC-α; PRE 200 μM): 2.10
